± gives the standard deviation of the averaged measurements.
Tests used:
[1] = system: VchCAST RNA-guided transposition machinery (E. coli BL21(DE3) host, lacZ target); assay: relative integration efficiency (T-RL orientation) vs wild-type transposon end (log2 (normalized fold change)); transposon end mutated: right end (5 bp flank + 75 bp right end); higher = more efficient transposition
Method in brief: (§1)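 Pools of 1549 left-end or 1849 right-end barcoded transposon variants were cloned into a pUC57 mini-transposon donor and co-transformed into E. coli BL21(DE3) with a T7-driven effector plasmid carrying a CRISPR array, tniQ-cas8-cas7-cas6 and tnsA-tnsB-tnsC. Plating used 0.1 mM IPTG at 37°C for 18 h, and input plasmids and genomic integration junctions were PCR-amplified for Illumina sequencing, with two biological output replicates and four reference barcodes. Relative integration efficiency is the log-transformed fold change of output over input barcode abundance, normalised to the reference barcodes.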

[2] = system: VchCAST RNA-guided transposition machinery (E. coli BL21(DE3) host, lacZ target); assay: relative integration efficiency (T-LR orientation) vs wild-type transposon end (log2 (normalized fold change)); transposon end mutated: right end (5 bp flank + 75 bp right end); higher = more efficient transposition
Method in brief: as §1

Sequence: ACATTTGTTGATAACCAACGCCCCGTCGCCGGCACAAACGCCCGGTCGCCGGCTCAACAAACGCCCGGTCGCGGTACTCTGATCATAGTCAGACCAACATTGCTACGACCCGTATTCGCACCGACAC
- relative integration efficiency (log2) [1]: -8.29 ± 1.1
- relative integration efficiency (log2) [2]: -6.65 ± 2

Sequence: ACATTTGTTGATAACCAACGCCCCGTCGCCGGCACAAACGCCCGGTCGCCGGCTCACACCCATAAATTGATATTGCCTCTGATCATAGTCAGACCAACATTGCTACGACCCGTATTCGCACCGACAC
- relative integration efficiency (log2) [1]: -7.79 ± 0.73
- relative integration efficiency (log2) [2]: < -10

Sequence: ACATTTGTTGATAACCAACGCCCCGTCGCCGGCCACCCATAAATTGATAATTATCAACAAACGCCCGGTCGCGGTACTCTGATCATAGTCAGACCAACATTGCTACGACCCGTATTCGCACCGACAC
- relative integration efficiency (log2) [1]: -7.3 ± 0.31
- relative integration efficiency (log2) [2]: -3.55 ± 0.48

Sequence: ACATTTGTTGATAACCACATAAAATGATAATTACACCCATAAATTGATAATTATCACACCCATAAATTGATATTGCCTCTGATCATAGTCAGACCAACATTGCTACGACCCGTATTCGCACCGACAC
- relative integration efficiency (log2) [1]: -0.808 ± 0.095
- relative integration efficiency (log2) [2]: -1.28 ± 0.093

Sequence: ACATTTGTTGATACAAAAATAAAATGATAATTACACCCATAAATTGATAATTATCACACCCATAAATTGATATTGCCTCTGATCATAGTCAGACCAACATTGCTACGACCCGTATTCGCACCGACAC
- relative integration efficiency (log2) [1]: -0.328 ± 0.18
- relative integration efficiency (log2) [2]: -0.268 ± 0.48

Sequence: ACATTTGTTGATACAAAACGAAAATGATAATTACACCCATAAATTGATAATTATCACACCCATAAATTGATATTGCCTCTGATCATAGTCAGACCAACATTGCTACGACCCGTATTCGCACCGACAC
- relative integration efficiency (log2) [1]: -3.95 ± 0.13
- relative integration efficiency (log2) [2]: -6.65 ± 0.98

Sequence: ACATTTGTTGATACAAAACGCCCCGTCGCCGGCACAAACGCCCGGTCGCCGGCGACACAAACGCCCGGTCGCGGTAAGAGGATCATAGTCAGACCAACATTGCTACGACCCGTATTCGCACCGACAC
- relative integration efficiency (log2) [1]: -7.52 ± 1
- relative integration efficiency (log2) [2]: -5.49 ± 0.46

Sequence: ACATTTGTTGATACAAACATAAAATGATAATTACACACATAAATTGATAATTATCACACACATAAATTGATATTGCCTCTGATCATAGTCAGACCAACATTGCTACGACCCGTATTCGCACCGACAC
- relative integration efficiency (log2) [1]: -1.41 ± 0.22
- relative integration efficiency (log2) [2]: -0.182 ± 0.14

Sequence: ACATTTGTTGATACAACAATAAAATGATAATTACACCAATAAATTGATAATTATCACACCAATAAATTGATATTGCCTCTGATCATAGTCAGACCAACATTGCTACGACCCGTATTCGCACCGACAC
- relative integration efficiency (log2) [1]: -0.726 ± 0.084
- relative integration efficiency (log2) [2]: -0.547 ± 0.67

Sequence: ACATTTGTTGATACAACACGCAAATGATAATTACACCCATAAATTGATAATTATCACACCCATAAATTGATATTGCCTCTGATCATAGTCAGACCAACATTGCTACGACCCGTATTCGCACCGACAC
- relative integration efficiency (log2) [1]: -4.368 ± 0.0069
- relative integration efficiency (log2) [2]: -4.89 ± 2.5

Sequence: ACATTTGTTGATACAACACTAAAATGATAATTACACCCATAAATTGATAATTATCACACCCATAAATTGATATTGCCTCTGATCATAGTCAGACCAACATTGCTACGACCCGTATTCGCACCGACAC
- relative integration efficiency (log2) [1]: -1.85 ± 0.15
- relative integration efficiency (log2) [2]: -2.04 ± 0.74

Sequence: ACATTTGTTGATACAACCAAAAAATGATAATTACACCCAAAAATTGATAATTATCACACCCAAAAATTGATATTGCCTCTGATCATAGTCAGACCAACATTGCTACGACCCGTATTCGCACCGACAC
- relative integration efficiency (log2) [1]: -0.669 ± 0.11
- relative integration efficiency (log2) [2]: 0.0409 ± 0.087

Sequence: ACATTTGTTGATACAACCAAAAAATGATAATTACACCCATAAATTGATAATAATGACACCGAATTTAACTATAACGCTCTGATCATAGTCAGACCAACATTGCTACGACCCGTATTCGCACCGACAC
- relative integration efficiency (log2) [1]: -1.3 ± 0.18
- relative integration efficiency (log2) [2]: 2.17 ± 0.081

Sequence: ACATTTGTTGATACAACCAAAAAATGATAATTACACCCATAAATTGATAATGATGACACCGAATTTAACTATAACGCTCTGATCATAGTCAGACCAACATTGCTACGACCCGTATTCGCACCGACAC
- relative integration efficiency (log2) [1]: -1.42 ± 0.27
- relative integration efficiency (log2) [2]: 2.11 ± 0.27

Sequence: ACATTTGTTGATACAACCAAAAAATGATAATTACACCCATAAATTGATAATTGTGACACCGAATTTAACTATAACGCTCTGATCATAGTCAGACCAACATTGCTACGACCCGTATTCGCACCGACAC
- relative integration efficiency (log2) [1]: -1.12 ± 0.18
- relative integration efficiency (log2) [2]: 2.44 ± 0.069

Sequence: ACATTTGTTGATACAACCAATAAAAGATAATTACACCCATAAATTGATAATTGTGACACCGAATTTAACTATAACGCTCTGATCATAGTCAGACCAACATTGCTACGACCCGTATTCGCACCGACAC
- relative integration efficiency (log2) [1]: -2 ± 0.21
- relative integration efficiency (log2) [2]: 1.26 ± 0.029

Sequence: ACATTTGTTGATACAACCAATAAAAGATTAATACCCCCATTAATTGATAATTGTGACACCGAATTTAACTATAACGCTCTGATCATAGTCAGACCAACATTGCTACGACCCGTATTCGCACCGACAC
- relative integration efficiency (log2) [1]: -5.12 ± 0.085
- relative integration efficiency (log2) [2]: -2.97 ± 0.16

Sequence: ACATTTGTTGATACAACCAATAAAAGATTATTACCCCCATTAATTGATAATGATGACACCGAATTTAACTATAACGCTCTGATCATAGTCAGACCAACATTGCTACGACCCGTATTCGCACCGACAC
- relative integration efficiency (log2) [1]: -4.62 ± 0.48
- relative integration efficiency (log2) [2]: -1.84 ± 0.29

Sequence: ACATTTGTTGATACAACCAATAAATGATAAATACACCCATAAATTGATAATGATGACACCGAATTTAACTATAACGCTCTGATCATAGTCAGACCAACATTGCTACGACCCGTATTCGCACCGACAC
- relative integration efficiency (log2) [1]: -1.58 ± 0.26
- relative integration efficiency (log2) [2]: 1.75 ± 0.069

Sequence: ACATTTGTTGATACAACCAATAAATGATAATTACACCCATAAATTGATAATAATGACACCGAATTTAACTATAACGCTCTGATCATAGTCAGACCAACATTGCTACGACCCGTATTCGCACCGACAC
- relative integration efficiency (log2) [1]: -1.44 ± 0.28
- relative integration efficiency (log2) [2]: 2.08 ± 0.21

Sequence: ACATTTGTTGATACAACCAATAAATGATAATTACACCCATAAATTGATAATGATGACACCGAATTTAACTATAACGCTCTGATCATAGTCAGACCAACATTGCTACGACCCGTATTCGCACCGACAC
- relative integration efficiency (log2) [1]: -1.56 ± 0.22
- relative integration efficiency (log2) [2]: 1.92 ± 0.035

Sequence: ACATTTGTTGATACAACCAATAAATGATAATTACACCCATAAATTGATAATTATCACACCCATAAATTGATATTGCCTCTGATCATAGTCAGACCAACATTGCTACGACCCGTATTCGCACCGACAC
- relative integration efficiency (log2) [1]: -0.395 ± 0.089
- relative integration efficiency (log2) [2]: -0.407 ± 0.67

Sequence: ACATTTGTTGATACAACCAATAAATGATAATTACACCCATAAATTGATAATTGTGACACCGAATTTAACTATAACGCTCTGATCATAGTCAGACCAACATTGCTACGACCCGTATTCGCACCGACAC
- relative integration efficiency (log2) [1]: -1.29 ± 0.29
- relative integration efficiency (log2) [2]: 2.09 ± 0.064

Sequence: ACATTTGTTGATACAACCAATAAATGATAATTACACCCATTAATTGATAATAATGACACCGAATTTAACTATAACGCTCTGATCATAGTCAGACCAACATTGCTACGACCCGTATTCGCACCGACAC
- relative integration efficiency (log2) [1]: -1.48 ± 0.29
- relative integration efficiency (log2) [2]: 1.91 ± 0.054

Sequence: ACATTTGTTGATACAACCAATAAATGATAATTACCCCCATAAATTGATAATTGTGACACCGAATTTAACTATAACGCTCTGATCATAGTCAGACCAACATTGCTACGACCCGTATTCGCACCGACAC
- relative integration efficiency (log2) [1]: -2.18 ± 0.42
- relative integration efficiency (log2) [2]: 1.59 ± 0.12
